From article PMC9482650, “Quantitative fragmentomics allow affinity mapping of interactomes” (Nature Communications, 2022)

Tests used:
Experiment in all cases: holdup assay
Design in all cases: key: below the threshold = too weak to quantify, mostly under pKd 3.1 to 4
[1] = target: Inadl_6, Q8NI35
[2] = target: GIPC2, Q8TF65
[3] = target: TJP2_1, Q9UDY2
[4] = target: T1, LIN7C, Q9NUP9
T1 sequence (Q9NUP9 88-185, limits assumed, looked up): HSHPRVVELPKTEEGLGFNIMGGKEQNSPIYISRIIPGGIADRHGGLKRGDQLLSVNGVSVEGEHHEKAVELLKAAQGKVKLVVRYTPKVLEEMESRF

[5] = target: T2, RAPGEF6, Q8TEU7
T2 sequence (Q8TEU7 525-625, limits assumed, looked up): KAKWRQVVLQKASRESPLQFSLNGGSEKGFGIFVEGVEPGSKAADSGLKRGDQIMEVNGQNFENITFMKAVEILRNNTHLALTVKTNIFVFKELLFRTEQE

[6] = target: T3, CARD11, Q9BXL7
T3 sequence (Q9BXL7 662-765, limits assumed, looked up): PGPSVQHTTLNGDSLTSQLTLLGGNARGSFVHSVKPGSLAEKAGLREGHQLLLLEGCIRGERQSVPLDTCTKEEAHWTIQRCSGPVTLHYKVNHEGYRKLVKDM

[7] = target: FRMPD2_3, Q68DX3
FRMPD2_3, Q68DX3, sequence (Q68DX3 1073-1166): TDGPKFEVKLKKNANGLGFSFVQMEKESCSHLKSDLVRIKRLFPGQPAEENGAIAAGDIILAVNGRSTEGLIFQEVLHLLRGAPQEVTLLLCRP

[8] = target: T4, NHERF3_1, Q5T2W1
T4 sequence (Q5T2W1 4-100, limits assumed, looked up): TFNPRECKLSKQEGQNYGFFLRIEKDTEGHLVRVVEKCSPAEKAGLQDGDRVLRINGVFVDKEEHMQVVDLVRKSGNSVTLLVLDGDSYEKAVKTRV

[9] = target: T5, LNX2_3, Q8N448
T5 sequence (Q8N448 463-564, limits assumed, looked up): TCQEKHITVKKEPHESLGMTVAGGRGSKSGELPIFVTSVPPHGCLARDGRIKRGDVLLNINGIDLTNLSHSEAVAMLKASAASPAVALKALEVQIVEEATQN

[10] = target: T6, LNX2_2, Q8N448
T6 sequence (Q8N448 334-432, limits assumed, looked up): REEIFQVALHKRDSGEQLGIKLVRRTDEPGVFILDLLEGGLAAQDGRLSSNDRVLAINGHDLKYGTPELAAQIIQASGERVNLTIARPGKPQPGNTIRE

[11] = target: SCRIB_3, Q14160
SCRIB_3, Q14160, sequence (Q14160 999-1103): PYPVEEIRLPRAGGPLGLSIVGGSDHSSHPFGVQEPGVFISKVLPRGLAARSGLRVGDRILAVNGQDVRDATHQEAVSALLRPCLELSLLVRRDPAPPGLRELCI

[12] = target: T7, TX1BP3, O14907
T7 sequence (O14907 10-122, limits assumed, looked up): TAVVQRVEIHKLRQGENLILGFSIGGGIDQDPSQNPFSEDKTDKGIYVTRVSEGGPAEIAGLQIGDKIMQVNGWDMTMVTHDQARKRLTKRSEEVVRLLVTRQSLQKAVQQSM

[13] = target: TJP1_3, Q07157
TJP1_3, Q07157, sequence (Q07157 416-512): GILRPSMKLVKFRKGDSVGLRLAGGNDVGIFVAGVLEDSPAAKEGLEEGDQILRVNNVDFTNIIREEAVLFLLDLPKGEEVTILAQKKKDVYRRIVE

[14] = target: T8, PDZD2_2, O15018
T8 sequence (O15018 329-429, limits assumed, looked up): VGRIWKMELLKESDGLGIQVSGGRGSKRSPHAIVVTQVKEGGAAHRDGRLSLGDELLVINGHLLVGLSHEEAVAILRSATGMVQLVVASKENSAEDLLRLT

[15] = target: T9, DLG3_3, Q92796
T9 sequence (Q92796 374-475, limits assumed, looked up): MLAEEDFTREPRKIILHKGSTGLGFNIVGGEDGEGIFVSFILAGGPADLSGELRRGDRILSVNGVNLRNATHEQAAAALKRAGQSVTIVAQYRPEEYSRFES

[16] = target: LDB3, O75112
LDB3, O75112, sequence (O75112 1-94): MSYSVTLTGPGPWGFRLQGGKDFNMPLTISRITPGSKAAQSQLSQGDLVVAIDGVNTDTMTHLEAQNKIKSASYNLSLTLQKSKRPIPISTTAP

[17] = target: FRMPD2_2, Q68DX3
FRMPD2_2, Q68DX3, sequence (Q68DX3 944-1038): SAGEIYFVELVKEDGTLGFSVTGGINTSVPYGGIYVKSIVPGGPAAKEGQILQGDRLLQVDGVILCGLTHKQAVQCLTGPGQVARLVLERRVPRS

[18] = target: DLG1_2, Q12959
DLG1_2, Q12959, sequence (Q12959 314-412): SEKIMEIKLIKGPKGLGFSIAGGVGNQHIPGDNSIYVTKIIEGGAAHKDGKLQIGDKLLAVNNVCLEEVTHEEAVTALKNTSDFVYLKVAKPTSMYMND

[19] = target: NHERF4_1, Q86UT5-2
NHERF4_1, Q86UT5-2, sequence (Q86UT5 other isoform, or with tags, fused parts or gaps): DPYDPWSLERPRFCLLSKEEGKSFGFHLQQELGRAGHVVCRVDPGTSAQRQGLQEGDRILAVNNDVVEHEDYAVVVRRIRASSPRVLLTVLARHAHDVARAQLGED

[20] = target: Inadl_3, Q8NI35
Inadl_3, Q8NI35, sequence (Q8NI35 359-469): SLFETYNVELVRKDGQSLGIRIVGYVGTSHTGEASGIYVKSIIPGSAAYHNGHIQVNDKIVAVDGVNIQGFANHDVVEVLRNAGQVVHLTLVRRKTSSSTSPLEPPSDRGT

[21] = target: T10, MPP7, Q5T2T1
T10 sequence (Q5T2T1 134-230, limits assumed, looked up): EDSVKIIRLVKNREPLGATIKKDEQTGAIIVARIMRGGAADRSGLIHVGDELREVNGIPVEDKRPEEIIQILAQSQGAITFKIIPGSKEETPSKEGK

[22] = target: Inadl_9, Q8NI35
Inadl_9, Q8NI35, sequence (Q8NI35 1530-1615): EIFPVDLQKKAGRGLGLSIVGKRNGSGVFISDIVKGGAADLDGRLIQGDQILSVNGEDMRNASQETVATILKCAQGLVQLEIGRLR

[23] = target: T11, DLG3_2, Q92796
T11 sequence (Q92796 221-321, limits assumed, looked up): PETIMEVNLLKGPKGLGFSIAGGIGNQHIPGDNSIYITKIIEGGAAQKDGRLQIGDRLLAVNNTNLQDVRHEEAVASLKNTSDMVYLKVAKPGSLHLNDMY

[24] = target: GRIP2_5, Q9C0E4
GRIP2_5, Q9C0E4, sequence (Q9C0E4 544-642): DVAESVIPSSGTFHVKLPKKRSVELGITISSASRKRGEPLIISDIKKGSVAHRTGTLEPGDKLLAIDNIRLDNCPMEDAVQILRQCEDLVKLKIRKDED

[25] = target: T12, GRIP1_7, Q9Y3R0
T12 sequence (Q9Y3R0 999-1096, limits assumed, looked up): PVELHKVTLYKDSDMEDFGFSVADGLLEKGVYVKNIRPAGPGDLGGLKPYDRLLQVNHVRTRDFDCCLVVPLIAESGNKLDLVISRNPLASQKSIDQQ

[26] = plain residues with an end cap or a label only (N-terminal biotin on a linker: gsgsgs; C-terminal amide)
[27] = plain residues with an end cap or a label only (N-terminal biotin on a linker: ttds)

TJP2_1, Q9UDY2, sequence (Q9UDY2 24-128): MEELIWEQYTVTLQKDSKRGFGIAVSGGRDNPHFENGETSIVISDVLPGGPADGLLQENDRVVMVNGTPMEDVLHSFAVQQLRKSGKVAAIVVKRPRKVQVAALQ
Inadl_6, Q8NI35, sequence (Q8NI35 1058-1167): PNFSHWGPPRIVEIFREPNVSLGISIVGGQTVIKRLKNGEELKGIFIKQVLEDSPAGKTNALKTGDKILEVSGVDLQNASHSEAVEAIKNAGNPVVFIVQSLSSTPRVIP
GIPC2, Q8TF65, sequence (Q8TF65 112-203): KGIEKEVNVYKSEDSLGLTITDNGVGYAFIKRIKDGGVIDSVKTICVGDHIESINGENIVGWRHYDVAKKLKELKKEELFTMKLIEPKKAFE

In the case of TLSLTDSSVDGIPPYR [AXIN1_int, O15169], the pKd [1, 26] is reported as “below the threshold”, the pKd [2, 26] is reported as “below the threshold” and the pKd [3, 26] is reported as “below the threshold”. For the same binder, the pKd [4, 26] was 3.97, the pKd [5, 26] was “below the threshold” and the pKd [6, 26] was “below the threshold”. The pKd [7, 26] was “below the threshold”, the pKd [8, 26] was “below the threshold” and the pKd [9, 26] was “below the threshold”. The pKd [10, 26] was “below the threshold”, the pKd [11, 26] was “below the threshold” and the pKd [12, 26] was 3.78. The pKd [13, 26] was “below the threshold”, the pKd [14, 26] was “below the threshold” and the pKd [15, 26] was “below the threshold”. For the same binder, the pKd [16, 26] was “below the threshold”, the pKd [17, 26] was “below the threshold” and the pKd [18, 26] was “below the threshold”. The pKd [19, 26] was “below the threshold”, the pKd [20, 26] was “below the threshold” and the pKd [21, 26] was “below the threshold”. For the same binder, the pKd [22, 26] was “below the threshold”, the pKd [23, 26] was 4.08 and the pKd [24, 26] was “below the threshold”. For the same binder, the pKd [25, 26] was “below the threshold”.

For SSRTRRETQL [HPV16-E6, P03126], the pKd [1, 27] was 3.49, the pKd [2, 27] was “below the threshold” and the pKd [3, 27] was 4.12. For the same binder, the pKd [4, 27] was 4.04, the pKd [5, 27] was 3.66 and the pKd [6, 27] was “below the threshold”. For the same binder, the pKd [7, 27] was “below the threshold”, the pKd [8, 27] was 5.62 and the pKd [9, 27] was “below the threshold”. For the same binder, the pKd [10, 27] was “below the threshold”, the pKd [11, 27] was 5.29 and the pKd [12, 27] was 4.87. For the same binder, the pKd [13, 27] was “below the threshold”, the pKd [14, 27] was “below the threshold” and the pKd [15, 27] was 4.88. For the same binder, the pKd [16, 27] was “below the threshold”, the pKd [17, 27] was “below the threshold” and the pKd [18, 27] was 5.06. The pKd [19, 27] was 4.25, the pKd [20, 27] was “below the threshold” and the pKd [21, 27] was “below the threshold”. The pKd [22, 27] was “below the threshold”, the pKd [23, 27] was 4.8 and the pKd [24, 27] was “below the threshold”. For the same binder, the pKd [25, 27] was “below the threshold”.

With TVASEKESVM [SLC1A5, Q15758] the pKd [1, 27] was “below the threshold”, the pKd [2, 27] was 3.54 and the pKd [3, 27] was “below the threshold”. For the same binder, the pKd [4, 27] was 3.62, the pKd [5, 27] was “below the threshold” and the pKd [6, 27] was “below the threshold”. For the same binder, the pKd [7, 27] was “below the threshold”, the pKd [8, 27] was 4.42 and the pKd [9, 27] was “below the threshold”. The pKd [10, 27] was “below the threshold”, the pKd [11, 27] was 3.97 and the pKd [12, 27] was 3.69. For the same binder, the pKd [13, 27] was “below the threshold”, the pKd [14, 27] was “below the threshold” and the pKd [15, 27] was 3.66. The pKd [16, 27] was “below the threshold”, the pKd [17, 27] was “below the threshold” and the pKd [18, 27] was “below the threshold”. For the same binder, the pKd [19, 27] was “below the threshold”, the pKd [20, 27] was “below the threshold” and the pKd [21, 27] was “below the threshold”. The pKd [22, 27] was “below the threshold”, the pKd [23, 27] was 3.55 and the pKd [24, 27] was “below the threshold”. The pKd [25, 27] was 3.67.

For IYVPEAQTRL [DLGAP4, Q9Y2H0], the pKd [1, 27] was “below the threshold”, the pKd [2, 27] was “below the threshold” and the pKd [3, 27] was “below the threshold”. For the same binder, the pKd [4, 27] was “below the threshold”, the pKd [5, 27] was “below the threshold” and the pKd [6, 27] was “below the threshold”. The pKd [7, 27] was “below the threshold”, the pKd [8, 27] was 5.25 and the pKd [9, 27] was “below the threshold”. The pKd [10, 27] was “below the threshold”, the pKd [11, 27] was 3.98 and the pKd [12, 27] was “below the threshold”. For the same binder, the pKd [13, 27] was “below the threshold”, the pKd [14, 27] was “below the threshold” and the pKd [15, 27] was “below the threshold”. For the same binder, the pKd [16, 27] was “below the threshold”, the pKd [17, 27] was “below the threshold” and the pKd [18, 27] was “below the threshold”. For the same binder, the pKd [19, 27] was 3.65, the pKd [20, 27] was “below the threshold” and the pKd [21, 27] was “below the threshold”. For the same binder, the pKd [22, 27] was “below the threshold”, the pKd [23, 27] was “below the threshold” and the pKd [24, 27] was “below the threshold”. The pKd [25, 27] was 3.77.
